Test results taken from publication PMC6161613.
pEC50: −log10 of the molar value.

Columns and labels:
Dansyl-calmodulin (rat) [1] = target: Dansyl-calmodulin (rat) (UniProt P0DP29); experiment: other fluorescence titration; D-CaM (12.5 nM) fluorescence enhancement on adding increasing concentrations of GST-fusion protein; 3.9 μM free Ca2+; Hill fit; apparent binding affinity (EC50)
Dansyl-calmodulin (rat) [2] = target: Dansyl-calmodulin (rat) (UniProt P0DP29); experiment: other fluorescence titration; D-CaM (12.5 nM) fluorescence enhancement on adding increasing concentrations of GST-fusion protein; absence of Ca2+ (10 mM EGTA added); Hill fit; apparent binding affinity (EC50)
[3] = target: GST-Kv7.2 helices A-B fusion protein (G310-L548) K526N (human); experiment: pull-down; purified GST fusion proteins immobilised on GSH-Sepharose 4B beads; CaM (10 μg) added, 45 min, room temperature; 25 mM Hepes, 120 mM KCl, 5 mM NaCl, pH 7.5 with 100 μM CaCl2; anti-CaM Western blot, band intensities quantified (n = 3)

GST-Kv7.2 helices A-B fusion protein (G310-L548) K526N (domain or fragment)
pEC50 (Dansyl-calmodulin (rat) [1]): 7.25 | pEC50 (Dansyl-calmodulin (rat) [2]): 7.43

GST-Kv7.2 helices A-B fusion protein (G310-L548) R333Q (domain or fragment)
pEC50 (Dansyl-calmodulin (rat) [1]): 7.52 | pEC50 (Dansyl-calmodulin (rat) [2]): 7.90

Recombinant rat brain calmodulin (from UniProt P0DP29 1-149) (natural protein)
percent lower CaM signal intensity than WT [3]: 42%
